In one assay the target is T1, rhLRP1 cluster II (Homo sapiens, UniProt Q07954).
T1 construct: rhLRP1 cluster II (aa 786-1165, C-terminal Fc, 1 μg); purchased R&D Systems; host or cells: NS0
T1 sequence (Q07954 786-1165): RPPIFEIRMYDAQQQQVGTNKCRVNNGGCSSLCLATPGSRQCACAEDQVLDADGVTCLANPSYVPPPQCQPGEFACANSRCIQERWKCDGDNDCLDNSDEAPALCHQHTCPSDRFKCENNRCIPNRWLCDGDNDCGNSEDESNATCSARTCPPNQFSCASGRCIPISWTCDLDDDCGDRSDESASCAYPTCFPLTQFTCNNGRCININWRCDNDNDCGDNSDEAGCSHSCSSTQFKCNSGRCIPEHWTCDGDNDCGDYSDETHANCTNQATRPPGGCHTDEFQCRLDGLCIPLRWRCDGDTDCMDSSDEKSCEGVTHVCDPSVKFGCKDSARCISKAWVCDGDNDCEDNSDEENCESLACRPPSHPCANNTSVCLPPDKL
In words: Solid phase binding assay of RAP peptides. As to the method: Solid phase binding assays were carried out as follows. Recombinant murine VLDLR ectodomain (aa 1-798, C-terminal hexahistidine, 1 μg) or rhLRP1 cluster II (aa 786-1165, C-terminal Fc, 1 μg) were bound to Nunc Maxisorp™ 96-well plates in TBS pH 8 supplemented with 5 mM CaCl2 (TBSC) overnight at 4° C. Wells were washed with TBSC and then blocked with TBSC containing 2% BSA. Peptides were then incubated with the immobilized receptor at a range of concentrations for 2 hours in the above blocking buffer supplemented with 0.05% Tween-20 at room temperature. Identical binding reactions were done in the presence of 50 mM EDTA to provide a measure of non-specific binding. Control wells contained no added peptide. Additional controls established absence of cross-reactivity between antibodies and receptors. Wells were washed with TBSTC and bound peptides detected with streptavidin-HRP (Pierce) or polyclonal anti-RAP (1:1,000, Raptor Pharmaceutical). […] Absorption at 450 nm was measured with a microplate spectrophotometer (Molecular Devices). […]
The binding affinity of the peptides for LRP1 and VLDLR, another receptor in the LDLR family, was measured as follows. […] Bound peptides were detected with streptavidin-HRP after extensive washing. Binding values measured in the presence of EDTA were subtracted from values measured in the absence of EDTA in order to determine calcium-dependent binding levels. […]

Assay [1] has as its target T2, LRP1 cluster II (LRP1-C2) (Homo sapiens, UniProt Q07954).
T2 construct: recombinant human LRP1 cluster II (amino acids 786-1165, with C-terminal Fc tag); purchased R&D Systems; host or cells: NS0
T2 sequence (Q07954 786-1165): T1 sequence (Q07954 786-1165)
The assay can be described thus: Inhibition of RAP d3 binding to LRP1-C2 (ELISA). As to the method:
Binding inhibition assays were also carried out to determine the ability of the mRAPc peptide to interfere with RAP d3 binding to LRP1 (cluster II), as well as binding of LRP ligands α-2-macroglobulin and uPA/PAI-1. To allow complexation with streptavidin or an anti-biotin antibody, the mRAPc peptide was fitted with an N-terminal biotin residue separated from the RAP sequence by a pentapeptide linker (GGSGG). Solid phase binding assays were performed using recombinant human LRP1 cluster II (amino acids 786-1165, with C-terminal Fc tag, 1 μg, R&D Systems, Minneapolis, Minn.) to coat Nunc MAXISORP™ 96-well plates in TBS pH 8 supplemented with 5 mM CaCl2 (TBSC) overnight at 4° C. Data was generated by ELISA assay. Wells were washed with TBSC and blocked with TBSC containing 2% BSA. In assays involving complexes between streptavidin and biotinylated peptide, LRP1 ligands (RAP d3 (2 nM), trypsin-activated α-2-macroglobulin (1 nM) or uPA/PAI-1 (10 nM) were incubated with the immobilized receptor, in the presence or absence of inhibitors, for 2 hours in the above blocking buffer supplemented with 0.05% Tween-20 at room temperature. In assays involving complexes of the anti-biotin antibody and biotinylated peptide, all inhibitor solutions were pre-incubated with immobilized LRP1-C2 prior to washing and subsequent incubation with ligand. Since the ligand binding competence of CR pairs requires calcium, identical binding reactions were done in the presence of 50 mM EDTA to provide a measure of non-specific binding. Control wells contained no added inhibitor. Wells were washed with TBS supplemented with 5 mM CaCl2 and 0.05% Tween-20. Bound ligand was detected with either anti-S-peptide-HRP conjugate (Abcam, Cambridge, Mass.), anti-α-2-macroglobulin-HRP or anti-PAI-1-HRP. Excess HRP conjugate was removed and wells washed. Color was developed using TMB reagents (BioRad, Hercules, Calif.). Absorption at 450 nm was measured with a microplate spectrophotometer (Molecular Devices, Palo Alto, Calif.).
The ability of mRAPc, in the presence and absence of either streptavidin or anti-biotin antibody, to inhibit binding of recombinant RAP d3 to LRP1-C2 was measured. […] The multifold enhancement of inhibition seen in the presence of streptavidin is consistent with an improvement in avidity upon multimerization of the minimized RAP domain.
Given the relatively weak monovalent affinity of the anti-biotin antibody for biotin (low nanomolar KD), it was hypothesized that preassembly of a multivalent complex consisting of two, suitably proximate, receptor-bound peptides and a single antibody would stabilize the peptide-antibody complex. Therefore, the antibody and peptide, in a molar ratio of one to three, was incubated with the immobilized receptor prior to washing and subsequent addition of the RAP d3 ligand. The same procedure was performed for the controls; peptide alone, antibody alone and RAP. […] Next the effect of the multimerized mRAPc was determined. The multimerized mRAPc was compared to the mRAPc monomer and full-length RAP in the inhibition of binding of two other ligands to LRP1-C2, trypsin-activated α-2-macroglobulin and the uPA/PAI-1 complex, at a single ligand concentration. […] In both cases, the complex of streptavidin and mRAPc inhibited binding with an EC50 approximately midway between RAP and the mRAPc monomer.
(An ELISA detects its analyte on a solid surface through an enzyme-linked reagent.)

Assay [2] has as its target LRP1, LRP1B, LRP2, SorLA, apoER2 and VLDLR. The conditions noted are these: read-out: dissociation constants; cited from earlier work.
The subject of a further assay is LDLR, LRP5 and LRP6. The conditions noted are these: cited from earlier work.

Where two headings read alike, the source gives them in different places. Positions of bridges follow the written chain, without caps; N, C: chain ends. No end group written: not given here.

Usually EC50 stands for the concentration that produces a half-maximal response.

On to “CEAKIEKHNHYQKQLEIAHEKLRHAESVGDGERVSRSREKHALLEGRTKELGYTVKKHGC (disulfide 1-60) [mRAP-14c]”, for which the Kd on rhLRP1 cluster II is approximately 21 nM.
Turning to “streptavidin: streptavidin alone, control”, the “inhibitory effect (in words)” value in assay [1] (ligand and inhibitor incubated together) was “no inhibitory effect”.
Turning to “RAP: receptor-associated protein, mature human RAP (SEQ ID NO: 95)”, in assay [1] (FIG. 14A), the “EC50 better than peptide assembled on streptavidin” value was “about 8 fold” and the “EC50 improvement over monomeric mRAPc peptide” value came to 64 fold. Moreover, the EC50 in assay [1] (inhibitor pre-incubated with immobilized receptor, washed, then ligand, FIG. 14B, read-out: EC50 of inhibition of RAP d3 binding) amounted to 0.3 nM. The EC50 in assay [1] (ligand and inhibitor incubated together, FIG. 14A, read-out: degree of inhibition (EC50) of RAP d3 binding) turned out to be 0.5 nM. The Kd in assay [2] is less than 5 nM. Further, the “affinity lower than for LRP1” value in the assay with LDLR, LRP5 and LRP6 is reported as “at least 10 fold”.

The values above are taken from patent US8440629B2, “Cyclic receptor-associated protein (RAP) peptides” (Raptor Pharmaceuticals Inc., priority 2007, dated 2013).
